Results taken from patent US20190321483A1 (Novartis, published 2019).

T1: Mouse cKIT ECD, C-terminal 6x His (Sino Biological Inc, Catalog number 50530-M08H) (mouse, UniProt P05532 25-527)
T1 construct: extracellular domain
T1 sequence: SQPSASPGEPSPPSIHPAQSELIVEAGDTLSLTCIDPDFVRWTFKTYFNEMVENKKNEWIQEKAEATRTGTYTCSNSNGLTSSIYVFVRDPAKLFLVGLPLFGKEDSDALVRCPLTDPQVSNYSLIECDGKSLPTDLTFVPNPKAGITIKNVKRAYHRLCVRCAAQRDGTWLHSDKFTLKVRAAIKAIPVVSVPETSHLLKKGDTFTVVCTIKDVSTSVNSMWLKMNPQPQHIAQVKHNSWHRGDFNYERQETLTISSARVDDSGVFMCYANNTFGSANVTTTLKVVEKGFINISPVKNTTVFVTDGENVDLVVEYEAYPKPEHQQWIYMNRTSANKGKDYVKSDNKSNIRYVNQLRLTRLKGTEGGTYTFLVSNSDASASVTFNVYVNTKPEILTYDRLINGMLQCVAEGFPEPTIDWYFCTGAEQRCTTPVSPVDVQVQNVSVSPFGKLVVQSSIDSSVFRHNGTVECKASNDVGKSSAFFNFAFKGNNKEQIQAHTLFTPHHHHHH

T2: Rat cKIT D1-5, C-terminal mFc (rat)
T2 construct: also called rat cKIT-mFc
T2 chain: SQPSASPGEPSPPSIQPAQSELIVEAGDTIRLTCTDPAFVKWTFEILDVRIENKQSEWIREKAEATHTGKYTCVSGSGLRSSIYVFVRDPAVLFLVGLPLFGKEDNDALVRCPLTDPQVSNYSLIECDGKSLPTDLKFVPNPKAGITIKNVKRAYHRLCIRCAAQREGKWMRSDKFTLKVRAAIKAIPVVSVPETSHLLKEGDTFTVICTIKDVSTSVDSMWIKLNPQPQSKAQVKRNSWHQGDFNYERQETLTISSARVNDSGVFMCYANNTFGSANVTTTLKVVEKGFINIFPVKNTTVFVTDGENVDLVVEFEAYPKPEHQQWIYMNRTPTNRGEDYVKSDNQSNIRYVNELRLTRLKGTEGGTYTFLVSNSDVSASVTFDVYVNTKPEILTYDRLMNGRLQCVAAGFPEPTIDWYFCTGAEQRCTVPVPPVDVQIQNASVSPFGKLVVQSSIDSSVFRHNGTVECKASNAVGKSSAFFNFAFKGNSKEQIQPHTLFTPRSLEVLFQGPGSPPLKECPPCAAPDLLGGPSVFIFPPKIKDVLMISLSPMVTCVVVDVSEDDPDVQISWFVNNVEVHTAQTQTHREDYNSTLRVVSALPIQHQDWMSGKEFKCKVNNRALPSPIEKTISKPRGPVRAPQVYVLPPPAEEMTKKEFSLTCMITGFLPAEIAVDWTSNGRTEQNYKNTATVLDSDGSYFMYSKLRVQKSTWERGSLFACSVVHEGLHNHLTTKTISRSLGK

T3: Cynomolgus monkey cKIT D1-5 (cynomolgus monkey, UniProt P10721 26-524 (human entry))
T3 construct: also called cyno cKIT ECD
T3 chain: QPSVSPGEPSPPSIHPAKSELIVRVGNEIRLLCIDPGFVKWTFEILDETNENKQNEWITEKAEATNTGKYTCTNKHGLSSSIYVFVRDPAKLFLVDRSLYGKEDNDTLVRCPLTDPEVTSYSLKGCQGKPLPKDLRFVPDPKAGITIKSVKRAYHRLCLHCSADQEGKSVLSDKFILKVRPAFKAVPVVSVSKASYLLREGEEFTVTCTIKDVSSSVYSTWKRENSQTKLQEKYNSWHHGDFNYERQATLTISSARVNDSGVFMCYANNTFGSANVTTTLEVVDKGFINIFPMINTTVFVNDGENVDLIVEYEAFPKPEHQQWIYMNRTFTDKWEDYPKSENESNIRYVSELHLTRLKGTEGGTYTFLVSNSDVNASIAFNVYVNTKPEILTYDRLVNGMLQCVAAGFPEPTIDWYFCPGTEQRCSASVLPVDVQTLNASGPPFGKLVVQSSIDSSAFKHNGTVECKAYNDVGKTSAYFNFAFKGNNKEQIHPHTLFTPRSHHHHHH


Experiments:
[1] = molecular target: T1, Mouse cKIT ECD, C-terminal 6x His (Sino …); test: cross reactivity, Table 6 (Example 4: Biacore SPR, antibody captured by anti-human Fc, cKIT ECD in solution)
[2] = molecular target: T2, Rat cKIT D1-5, C-terminal mFc; test: as above
[3] = molecular target: T4, Human cKIT D1-5 (extracellular domain) (human, UniProt P10721 26-524); test: 'in SET' by the column head; Example 4 describes Biacore SPR (antibody captured by anti-human Fc, cKIT ECD in solution)
T4 construct: also called human cKIT ECD; full-length cKIT ECD

[4] = molecular target: T3, Cynomolgus monkey cKIT D1-5; test: as above
[5] = molecular target: T2, Rat cKIT D1-5, C-terminal mFc; test: cross reactivity, Table 6 (Example 4: Biacore SPR, antibody captured, cKIT ECD in solution)

T4 sequence (P10721 other isoform, or with tags, fused parts or gaps): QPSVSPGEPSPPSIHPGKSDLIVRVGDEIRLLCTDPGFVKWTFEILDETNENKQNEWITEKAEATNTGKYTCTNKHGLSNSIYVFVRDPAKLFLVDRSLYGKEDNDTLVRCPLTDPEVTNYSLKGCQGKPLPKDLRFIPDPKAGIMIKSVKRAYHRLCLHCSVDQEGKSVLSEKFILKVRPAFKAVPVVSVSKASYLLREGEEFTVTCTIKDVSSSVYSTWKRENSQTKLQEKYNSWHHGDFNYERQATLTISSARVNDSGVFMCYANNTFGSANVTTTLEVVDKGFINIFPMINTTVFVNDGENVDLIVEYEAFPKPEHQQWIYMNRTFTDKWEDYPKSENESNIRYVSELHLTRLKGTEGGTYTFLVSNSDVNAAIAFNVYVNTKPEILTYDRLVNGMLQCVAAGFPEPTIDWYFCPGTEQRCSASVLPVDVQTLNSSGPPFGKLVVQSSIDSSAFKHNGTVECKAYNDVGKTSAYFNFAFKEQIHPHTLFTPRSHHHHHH

Row | Binder | binding result [1] | binding result [2] | Kd [3] | Kd [4] | binding result [5]
1 | Anti-cKIT Ab1 (antibody, human IgG1, kappa, V domains shown, Full-length human IgG1, kappa light chain; also called IgG control for J1) VH: QVQLVQSGAEVKKPGSSVKVSCKASGGTFSSYAISWVRQAPGQGLEWMGVIFPAEGAPGYAQKFQGRVTITADESTSTAYMELSSLRSEDTAVYYCARGGYISDFDVWGQGTLVTVSS VL: DIQMTQSPSSLSASVGDRVTITCRASQSISNYLAWYQQKPGKAPKLLIYDASSLQSGVPSRFSGSGSGTDFTLTISSLQPEDFATYYCQQYYYESITFGQGTKVEIKR | no binding | no binding | 94 pM | 170 pM | 
2 | Anti-cKIT Ab2 (antibody, human IgG1, kappa, V domains shown, Full-length human IgG1, kappa light chain; also called IgG control for J2) VH: QVQLVQSGAEVKKPGSSVKVSCKASGGTFSSHALSWVRQAPGQGLEWMGGIIPSFGTADYAQKFQGRVTITADESTSTAYMELSSLRSEDTAVYYCARGLYDFDYWGQGTLVTVSS VL: DIQMTQSPSSLSASVGDRVTITCRASQDISQDLAWYQQKPGKAPKLLIYDASSLQSGVPSRFSGSGSGTDFTLTISSLQPEDFAVYYCQQYYYLPSTFGQGTKVEIKR | no binding | no binding | 7 pM | 10 pM | 
3 | Anti-cKIT Ab5 (antibody, human IgG1, lambda, V domains shown, Full-length human IgG1, lambda light chain) VH: QVQLVQSGAEVKKPGESLKISCKGSGYSFTNYWIAWVRQMPGKGLEWMGIIYPSNSYTLYSPSFQGQVTISADKSISTAYLQWSSLKASDTAMYYCARVPPGGSISYPAFDHWGQGTLVTVSS VL: DIELTQPPSVSVSPGQTASITCSGDNIGSIYASWYQQKPGQAPVLVIYRDNKRPSGIPERFSGSNSGNTATLTISGTQAEDEADYYCSVTDMEQHSVFGGGTKLTVLG |  |  | 110 pM | 180 pM | binds

The remaining binders from weak to strong by Kd [4], led by results:

Row | binding result [1] | binding result [2] | Kd [3] | Kd [4] | binding result [5] | Binder
4 |  |  | 2400 pM | 140 pM | binds | Anti-cKIT Ab4 (antibody, human IgG1, lambda, V domains shown, Full-length human IgG1, lambda light chain; also called IgG control for J4) VH: QVQLQQSGPGLVKPSQTLSLTCAISGDSVSTNSAAWNWIRQSPSRGLEWLGRIYYRSQWLNDYAVSVKSRITINPDTSKNQFSLQLNSVTPEDTAVYYCARQLTYPYTVYHKALDVWGQGTLVTVSS VL: DIELTQPPSVSVSPGQTASITCSGDNLGDQYVSWYQQKPGQAPVLVIYDDTDRPSGIPERFSGSNSGNTATLTISGTQAEDEADYYCQSTDSKSVVFGGGTKLTVLG
5 | no binding | no binding |  | 52 pM |  | Anti-cKIT Ab3 (antibody, human IgG1, kappa, V domains shown, Full-length human IgG1, kappa light chain; also called IgG control for J3) VH: QVQLVQSGAEVKKPGSSVKVSCKASGGTFSSYAISWVRQAPGQGLEWMGTIGPFEGQPRYAQKFQGRVTITADESTSTAYMELSSLRSEDTAVYYCARGGYISDFDVWGQGTLVTVSS VL: DIQMTQSPSSLSASVGDRVTITCRASQSISNYLAWYQQKPGKAPKLLIYDASSLQSGVPSRFSGSGSGTDFTLTISSLQPEDFATYYCQQYYYESITFGQGTKVEIKR
